The values that follow come from CN111544600A (UNIV CHINA PHARMA, dated 2020).

The target of the assay is T1, 人DLL4抗原 (human, UniProt Q9NR61 27-524, limits assumed).
T1 construct: Coated at 1 μg/mL; also called Delta like 4
Description: ELISA, DLL4 antigen coated on plate, HRP secondary antibody, OD450-OD630. (In general: An ELISA detects its analyte on a solid surface through an enzyme-linked reagent.)

T1 sequence (Q9NR61 27-524 limits assumed): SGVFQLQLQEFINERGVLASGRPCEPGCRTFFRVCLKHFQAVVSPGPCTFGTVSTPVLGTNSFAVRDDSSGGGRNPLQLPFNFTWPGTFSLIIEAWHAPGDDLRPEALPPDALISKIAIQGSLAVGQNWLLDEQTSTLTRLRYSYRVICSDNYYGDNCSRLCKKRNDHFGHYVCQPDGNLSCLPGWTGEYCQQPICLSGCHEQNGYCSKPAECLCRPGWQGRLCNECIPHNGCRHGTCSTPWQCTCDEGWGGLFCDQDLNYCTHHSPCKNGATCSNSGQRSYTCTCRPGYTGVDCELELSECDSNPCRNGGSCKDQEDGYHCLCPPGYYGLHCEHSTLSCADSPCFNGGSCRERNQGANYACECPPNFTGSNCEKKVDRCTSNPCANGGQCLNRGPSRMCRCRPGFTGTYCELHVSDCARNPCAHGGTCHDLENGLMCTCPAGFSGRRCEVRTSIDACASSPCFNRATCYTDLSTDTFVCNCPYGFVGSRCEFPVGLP

B1: 抗人DLL4人源化抗体H3L2 (antibody, V domains shown)
VH: QVQLVQSGAEVKKPGSSVKVSCKASGYTFSGYWMQWIKQAPGQGLEWIGAIYPGDGDTRYTQKFKGRATLTADKSTSTAYMELSSLRSEDTAVYYCAGGNFFFDYWGQGTLVTVSS
VL: EIVITQSPDFQSVTPKEKVTITCSVSSSISSSYLHWYQQKPDQSPKPWIYGTSNLASGVPSRFSGSGSGTDYTLTINSLEAEDAATYYCQQWSSSPLTFGQGTKLEIKV
For orientation: EC50 means the concentration at which the effect is half-maximal. Lower therefore signals a more potent agent. The molecule B1 showed an EC50 of 0.0492 µM.
